Residue numbers refer to the chain shown, from its start. Names and notes keep the numbering of the source.

This data set concerns the molecule itself. Kind of data set: GraFix.

B1: ad2-100K fused with a C terminal 2 × Strep tag (natural protein, human adenovirus type 2 (ad2), UniProt P24932 1-805, looked up)
chain: MESVEKEDSLTAPFEFATTASTDAANAPTTFPVEAPPLEEEEVIIEQDPGFVSEDDEDRSVPTEDKKQDQDDAEANEEQVGRGDQRHGDYLDVGDDVLLKHLQRQCAIICDALQERSDVPLAIADVSLAYERHLFSPRVPPKRQENGTCEPNPRLNFYPVFAVPEVLATYHIFFQNCKIPLSCRANRSRADKQLALRQGAVIPDIASLDEVPKIFEGLGRDEKRAANALQQENSENESHCGVLVELEGDNARLAVLKRSIEVTHFAYPALNLPPKVMSTVMSELIVRRARPLERDANLQEQTEEGLPAVGDEQLARWLETREPADLEERRKLMMAAVLVTVELECMQRFFADPEMQRKLEETLHYTFRQGYVRQACKISNVELCNLVSYLGILHENRLGQNVLHSTLKGEARRDYVRDCVYLFLCYTWQTAMGVWQQCLEERNLKELQKLLKQNLKDLWTAFNERSVAAHLADIIFPERLLKTLQQGLPDFTSQSMLQNFRNFILERSGILPATCCALPSDFVPIKYRECPPPLWGHCYLLQLANYLAYHSDIMEDVSGDGLLECHCRCNLCTPHRSLVCNSQLLSESQIIGTFELQGPSPDEKSAAPGLKLTPGLWTSAYLRKFVPEDYHAHEIRFYEDQSRPPNAELTACVITQGHILGQLQAINKARQEFLLRKGRGVYLDPQSGEELNPIPPPPQPYQQPRALASQDGTQKEAAAAAAATHGRGGILGQSGRGGFGRGGGDDGRLGQPRRSFRGRRGVRRNTVTLGRIPLAGAPEIGNRSQHRYNLRSSGAAGTACSPTQP
modifications: intermolecular disulfide bonds C515-C516' and C516-C515' between the two protomers
For B1, the stoichiometry N (in general, the number of molecules, sites or subunits per partner or assembly) was determined as 2.

B2: ad2-100K mutant C515S-C516S-strepII (natural protein, human adenovirus type 2 (ad2), UniProt P24932 1-805, looked up)
chain: B1 chain with C515S, C516S
As for B2, the binding result was “binds”.

B3: ad2-100K truncation mutant Δ680–805 with a C terminal 2 × Strep tag (domain or fragment, human adenovirus type 2 (ad2), UniProt P24932 1-679, looked up)
chain: MESVEKEDSLTAPFEFATTASTDAANAPTTFPVEAPPLEEEEVIIEQDPGFVSEDDEDRSVPTEDKKQDQDDAEANEEQVGRGDQRHGDYLDVGDDVLLKHLQRQCAIICDALQERSDVPLAIADVSLAYERHLFSPRVPPKRQENGTCEPNPRLNFYPVFAVPEVLATYHIFFQNCKIPLSCRANRSRADKQLALRQGAVIPDIASLDEVPKIFEGLGRDEKRAANALQQENSENESHCGVLVELEGDNARLAVLKRSIEVTHFAYPALNLPPKVMSTVMSELIVRRARPLERDANLQEQTEEGLPAVGDEQLARWLETREPADLEERRKLMMAAVLVTVELECMQRFFADPEMQRKLEETLHYTFRQGYVRQACKISNVELCNLVSYLGILHENRLGQNVLHSTLKGEARRDYVRDCVYLFLCYTWQTAMGVWQQCLEERNLKELQKLLKQNLKDLWTAFNERSVAAHLADIIFPERLLKTLQQGLPDFTSQSMLQNFRNFILERSGILPATCCALPSDFVPIKYRECPPPLWGHCYLLQLANYLAYHSDIMEDVSGDGLLECHCRCNLCTPHRSLVCNSQLLSESQIIGTFELQGPSPDEKSAAPGLKLTPGLWTSAYLRKFVPEDYHAHEIRFYEDQSRPPNAELTACVITQGHILGQLQAINKARQEFLLRKGR
Take B3: the binding result is recorded as “binds”.

B4: ad2-100K truncation mutant Δ693–805 with a C terminal 2 × Strep tag (domain or fragment, human adenovirus type 2 (ad2), UniProt P24932 1-692, looked up)
chain: MESVEKEDSLTAPFEFATTASTDAANAPTTFPVEAPPLEEEEVIIEQDPGFVSEDDEDRSVPTEDKKQDQDDAEANEEQVGRGDQRHGDYLDVGDDVLLKHLQRQCAIICDALQERSDVPLAIADVSLAYERHLFSPRVPPKRQENGTCEPNPRLNFYPVFAVPEVLATYHIFFQNCKIPLSCRANRSRADKQLALRQGAVIPDIASLDEVPKIFEGLGRDEKRAANALQQENSENESHCGVLVELEGDNARLAVLKRSIEVTHFAYPALNLPPKVMSTVMSELIVRRARPLERDANLQEQTEEGLPAVGDEQLARWLETREPADLEERRKLMMAAVLVTVELECMQRFFADPEMQRKLEETLHYTFRQGYVRQACKISNVELCNLVSYLGILHENRLGQNVLHSTLKGEARRDYVRDCVYLFLCYTWQTAMGVWQQCLEERNLKELQKLLKQNLKDLWTAFNERSVAAHLADIIFPERLLKTLQQGLPDFTSQSMLQNFRNFILERSGILPATCCALPSDFVPIKYRECPPPLWGHCYLLQLANYLAYHSDIMEDVSGDGLLECHCRCNLCTPHRSLVCNSQLLSESQIIGTFELQGPSPDEKSAAPGLKLTPGLWTSAYLRKFVPEDYHAHEIRFYEDQSRPPNAELTACVITQGHILGQLQAINKARQEFLLRKGRGVYLDPQSGEELN
Consider B4, for which the binding result is “binds”.

(Values after paper PMC12041577 (Nature Communications, 2025).)
